According to publication PMC10656236 (The Journal of Biological Chemistry, 2023):

Target: cohesin-NIPBL^c subcomplex containing SMC1, SMC3, RAD21 and NIPBL^c (no SA1) (human, UniProt Q14683;Q9UQE7;O60216;Q6KC79)
Assay: reconstitution by mixing, AFM imaging in air

Chain of cohesin-NIPBL^c subcomplex containing SMC1, SMC3, RAD21 and NIPBL^c (no SA1) (Q14683 whole entry, chain 1 of 4): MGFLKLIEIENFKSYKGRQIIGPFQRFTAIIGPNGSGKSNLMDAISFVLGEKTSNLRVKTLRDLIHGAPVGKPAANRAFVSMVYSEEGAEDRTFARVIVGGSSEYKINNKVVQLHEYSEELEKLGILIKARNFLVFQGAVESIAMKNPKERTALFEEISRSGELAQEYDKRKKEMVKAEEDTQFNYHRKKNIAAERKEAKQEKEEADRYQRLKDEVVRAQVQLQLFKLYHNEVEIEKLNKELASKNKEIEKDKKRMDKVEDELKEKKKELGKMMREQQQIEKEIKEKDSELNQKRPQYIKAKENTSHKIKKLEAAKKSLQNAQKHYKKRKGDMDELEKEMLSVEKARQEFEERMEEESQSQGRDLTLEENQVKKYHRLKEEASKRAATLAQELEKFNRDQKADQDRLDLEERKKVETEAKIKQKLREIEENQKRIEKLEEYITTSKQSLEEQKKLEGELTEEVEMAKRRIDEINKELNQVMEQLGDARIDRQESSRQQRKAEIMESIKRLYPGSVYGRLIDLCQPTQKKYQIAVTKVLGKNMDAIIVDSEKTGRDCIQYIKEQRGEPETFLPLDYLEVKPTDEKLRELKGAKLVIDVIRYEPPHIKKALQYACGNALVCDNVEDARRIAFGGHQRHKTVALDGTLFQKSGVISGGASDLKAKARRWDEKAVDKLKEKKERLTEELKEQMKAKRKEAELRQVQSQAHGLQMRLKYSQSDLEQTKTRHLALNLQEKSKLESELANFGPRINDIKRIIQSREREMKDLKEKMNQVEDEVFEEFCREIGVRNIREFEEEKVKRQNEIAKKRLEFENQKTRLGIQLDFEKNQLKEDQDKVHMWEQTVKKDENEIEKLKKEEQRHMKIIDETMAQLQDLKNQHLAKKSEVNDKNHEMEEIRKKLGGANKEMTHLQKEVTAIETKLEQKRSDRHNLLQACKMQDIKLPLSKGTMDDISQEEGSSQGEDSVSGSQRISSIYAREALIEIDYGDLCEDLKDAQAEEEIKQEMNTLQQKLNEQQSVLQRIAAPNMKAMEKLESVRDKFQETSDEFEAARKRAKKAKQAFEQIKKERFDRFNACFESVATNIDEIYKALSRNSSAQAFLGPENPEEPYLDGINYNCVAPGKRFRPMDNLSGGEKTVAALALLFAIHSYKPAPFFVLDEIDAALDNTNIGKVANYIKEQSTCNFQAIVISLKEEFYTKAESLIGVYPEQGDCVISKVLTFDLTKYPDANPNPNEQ
Chain of cohesin-NIPBL^c subcomplex containing SMC1, SMC3, RAD21 and NIPBL^c (no SA1) (Q9UQE7 whole entry, chain 2 of 4): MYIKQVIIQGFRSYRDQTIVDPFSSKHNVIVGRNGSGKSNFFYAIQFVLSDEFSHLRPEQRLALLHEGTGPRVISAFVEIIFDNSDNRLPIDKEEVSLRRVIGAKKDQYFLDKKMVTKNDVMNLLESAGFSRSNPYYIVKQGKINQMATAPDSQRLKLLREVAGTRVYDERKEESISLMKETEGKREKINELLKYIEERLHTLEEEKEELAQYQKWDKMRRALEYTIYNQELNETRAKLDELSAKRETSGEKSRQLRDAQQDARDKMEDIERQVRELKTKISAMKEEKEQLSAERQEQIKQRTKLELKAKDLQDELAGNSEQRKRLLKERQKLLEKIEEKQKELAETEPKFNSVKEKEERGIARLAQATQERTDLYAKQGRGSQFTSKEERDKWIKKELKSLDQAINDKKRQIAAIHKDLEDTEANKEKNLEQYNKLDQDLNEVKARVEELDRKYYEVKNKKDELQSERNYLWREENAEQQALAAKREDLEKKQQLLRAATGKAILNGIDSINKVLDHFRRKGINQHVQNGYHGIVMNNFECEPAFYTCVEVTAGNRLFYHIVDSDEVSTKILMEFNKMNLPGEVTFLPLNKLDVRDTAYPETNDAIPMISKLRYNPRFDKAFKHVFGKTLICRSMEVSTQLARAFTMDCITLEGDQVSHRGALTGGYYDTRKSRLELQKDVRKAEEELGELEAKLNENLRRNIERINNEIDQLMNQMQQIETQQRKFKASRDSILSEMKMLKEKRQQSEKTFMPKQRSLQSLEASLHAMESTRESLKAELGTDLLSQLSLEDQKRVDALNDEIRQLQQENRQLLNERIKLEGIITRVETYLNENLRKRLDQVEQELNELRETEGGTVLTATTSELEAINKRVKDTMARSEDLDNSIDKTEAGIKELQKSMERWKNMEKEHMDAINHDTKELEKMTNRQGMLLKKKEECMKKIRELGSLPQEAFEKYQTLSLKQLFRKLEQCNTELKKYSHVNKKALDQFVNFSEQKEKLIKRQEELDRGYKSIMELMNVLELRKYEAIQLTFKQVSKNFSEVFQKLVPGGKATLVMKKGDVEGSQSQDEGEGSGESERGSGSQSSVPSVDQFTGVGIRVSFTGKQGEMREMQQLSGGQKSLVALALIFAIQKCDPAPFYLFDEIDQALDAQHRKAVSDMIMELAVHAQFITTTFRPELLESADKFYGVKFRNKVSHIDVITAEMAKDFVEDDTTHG
Chain of cohesin-NIPBL^c subcomplex containing SMC1, SMC3, RAD21 and NIPBL^c (no SA1) (O60216 whole entry, chain 3 of 4): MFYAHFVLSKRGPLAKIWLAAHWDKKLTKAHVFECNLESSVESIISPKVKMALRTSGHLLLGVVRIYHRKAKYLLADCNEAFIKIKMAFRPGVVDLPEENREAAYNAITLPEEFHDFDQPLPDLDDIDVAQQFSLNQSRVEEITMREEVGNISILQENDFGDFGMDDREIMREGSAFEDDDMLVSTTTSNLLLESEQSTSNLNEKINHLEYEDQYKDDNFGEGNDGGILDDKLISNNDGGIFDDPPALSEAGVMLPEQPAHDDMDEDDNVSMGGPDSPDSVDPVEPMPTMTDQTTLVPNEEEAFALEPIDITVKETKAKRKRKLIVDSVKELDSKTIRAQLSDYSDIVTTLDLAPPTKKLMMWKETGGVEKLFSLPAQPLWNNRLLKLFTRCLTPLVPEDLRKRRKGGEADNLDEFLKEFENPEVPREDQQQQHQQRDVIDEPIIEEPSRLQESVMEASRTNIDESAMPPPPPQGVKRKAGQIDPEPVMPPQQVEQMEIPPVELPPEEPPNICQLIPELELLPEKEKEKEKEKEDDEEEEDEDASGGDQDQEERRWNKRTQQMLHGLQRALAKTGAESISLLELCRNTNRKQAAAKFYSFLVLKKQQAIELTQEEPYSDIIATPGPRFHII
Chain of cohesin-NIPBL^c subcomplex containing SMC1, SMC3, RAD21 and NIPBL^c (no SA1) (Q6KC79 1163-2804, chain 4 of 4): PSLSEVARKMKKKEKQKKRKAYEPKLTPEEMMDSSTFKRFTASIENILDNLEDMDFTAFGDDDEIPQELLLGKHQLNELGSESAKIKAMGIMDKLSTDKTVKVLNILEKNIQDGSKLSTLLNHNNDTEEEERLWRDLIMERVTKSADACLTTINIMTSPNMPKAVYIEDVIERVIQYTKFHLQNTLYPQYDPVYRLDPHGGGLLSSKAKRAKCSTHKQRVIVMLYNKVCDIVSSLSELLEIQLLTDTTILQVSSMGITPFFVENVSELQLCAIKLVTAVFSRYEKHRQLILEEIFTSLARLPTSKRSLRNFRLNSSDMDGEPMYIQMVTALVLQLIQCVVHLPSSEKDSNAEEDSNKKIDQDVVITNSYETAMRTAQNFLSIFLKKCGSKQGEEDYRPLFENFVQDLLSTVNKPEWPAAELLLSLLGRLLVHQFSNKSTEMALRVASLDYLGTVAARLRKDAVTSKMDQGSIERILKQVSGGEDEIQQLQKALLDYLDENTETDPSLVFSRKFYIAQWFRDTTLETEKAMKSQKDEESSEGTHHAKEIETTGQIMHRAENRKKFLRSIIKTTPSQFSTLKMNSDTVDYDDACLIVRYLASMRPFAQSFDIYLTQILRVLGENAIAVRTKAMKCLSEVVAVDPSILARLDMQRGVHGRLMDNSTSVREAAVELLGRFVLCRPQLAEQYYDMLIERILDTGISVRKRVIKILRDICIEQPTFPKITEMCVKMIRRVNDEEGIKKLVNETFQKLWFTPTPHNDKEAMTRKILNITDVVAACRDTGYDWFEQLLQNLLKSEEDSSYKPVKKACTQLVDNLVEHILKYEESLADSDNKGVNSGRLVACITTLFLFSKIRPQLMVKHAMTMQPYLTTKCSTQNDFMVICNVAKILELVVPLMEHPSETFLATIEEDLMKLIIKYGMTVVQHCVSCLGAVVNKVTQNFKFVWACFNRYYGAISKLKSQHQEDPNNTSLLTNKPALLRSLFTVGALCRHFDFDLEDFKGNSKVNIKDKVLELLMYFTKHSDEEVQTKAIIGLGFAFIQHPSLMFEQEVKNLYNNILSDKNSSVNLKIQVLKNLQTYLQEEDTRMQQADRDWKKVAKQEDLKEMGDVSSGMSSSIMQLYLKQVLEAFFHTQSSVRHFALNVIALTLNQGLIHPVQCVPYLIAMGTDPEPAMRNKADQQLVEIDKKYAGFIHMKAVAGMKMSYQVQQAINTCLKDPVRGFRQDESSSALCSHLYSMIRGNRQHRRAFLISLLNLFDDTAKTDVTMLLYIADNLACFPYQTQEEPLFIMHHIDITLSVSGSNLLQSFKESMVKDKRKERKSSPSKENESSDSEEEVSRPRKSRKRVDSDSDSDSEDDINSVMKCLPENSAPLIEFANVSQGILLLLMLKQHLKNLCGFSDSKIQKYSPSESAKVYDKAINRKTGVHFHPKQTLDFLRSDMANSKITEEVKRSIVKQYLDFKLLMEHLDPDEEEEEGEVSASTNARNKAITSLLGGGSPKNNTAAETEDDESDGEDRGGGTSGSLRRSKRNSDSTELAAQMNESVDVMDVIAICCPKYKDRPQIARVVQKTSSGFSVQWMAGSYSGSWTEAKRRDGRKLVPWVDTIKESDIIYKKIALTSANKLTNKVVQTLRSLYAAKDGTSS

B1: SA1dc (SA1 1-1054 AAs, without its C terminus) (domain or fragment)
chain: MITSELPVLQDSTNETTAHSDAGSELEETEVKGKRKRGRPGRPPSTNKKPRKSPGEKSRIEAGIRGAGRGRANGHPQQNGEGEPVTLFEVVKLGKSAMQSVVDDWIESYKQDRDIALLDLINFFIQCSGCRGTVRIEMFRNMQNAEIIRKMTEEFDEDSGDYPLTMPGPQWKKFRSNFCEFIGVLIRQCQYSIIYDEYMMDTVISLLTGLSDSQVRAFRHTSTLAAMKLMTALVNVALNLSIHQDNTQRQYEAERNKMIGKRANERLELLLQKRKELQENQDEIENMMNSIFKGIFVHRYRDAIAEIRAICIEEIGVWMKMYSDAFLNDSYLKYVGWTLHDRQGEVRLKCLKALQSLYTNRELFPKLELFTNRFKDRIVSMTLDKEYDVAVEAIRLVTLILHGSEEALSNEDCENVYHLVYSAHRPVAVAAGEFLHKKLFSRHDPQAEEALAKRRGRNSPNGNLIRMLVLFFLESELHEHAAYLVDSLWESSQELLKDWECMTELLLEEPVQGEEAMSDRQESALIELMVCTIRQAAEAHPPVGRGTGKRVLTAKERKTQIDDRNKLTEHFIITLPMLLSKYSADAEKVANLLQIPQYFDLEIYSTGRMEKHLDALLKQIKFVVEKHVESDVLEACSKTYSILCSEEYTIQNRVDIARSQLIDEFVDRFNHSVEDLLQEGEEADDDDIYNVLSTLKRLTSFHNAHDLTKWDLFGNCYRLLKTGIEHGAMPEQIVVQALQCSHYSILWQLVKITDGSPSKEDLLVLRKTVKSFLAVCQQCLSNVNTPVKEQAFMLLCDLLMIFSHQLMTGGREGLQPLVFNPDTGLQSELLSFVMDHVFIDQDEENQSMEGDEEDEANKIEALHKRRNLLAAFSKLIIYDIVDMHAAADIFKHYMKYYNDYGDIIKETLSKTRQIDKIQCAKTLILSLQQLFNELVQEQGPNLDRTSAHVSGIKELARRFALTFGLDQIKTREAVATLHKDGIEFAFKYQNQKGQEYPPPNLAFLEVLSEFSSKLLRQDKKTVHSYLEKFLTEQMMERREDVWLPLISYRNSLVT
B1: binds.
